Data published in US7378498B2, “Protein encoded by a nucleic acid” (The Johns Hopkins University School of Medicine, priority 1998, dated 2008).
Numbering of substitutions follows the chain as printed. Names and notes keep the numbering of the source.

B1: F7R: point mutant of the Homer EVH1 domain (protein)
chain: MGEQPIRSTRAHVFQIDPNTKKNWVPTSKHAVTVSYFYDSTRNVYRIISLDGSKAIINSTITPNMTFTKTSQKFGQWADSRANTVYGLGFSSEHHLSKFAEKFQEFKEAARLAKEKSQEK
modifications: left off: small tags and cut ends
notes: point mutant of the Homer EVH1 domain
B2: F90S: point mutant of the Homer EVH1 domain (protein)
chain: B1 chain with R7F, F90S
modifications: left off: small tags and cut ends
notes: as for B1
B3: I48A: point mutant of the Homer EVH1 domain (protein)
chain: B1 chain with R7F, I48A
modifications: left off: small tags and cut ends
notes: as for B1
B4: S35V: point mutant of the Homer EVH1 domain (protein)
chain: B1 chain with R7F, S35V
modifications: left off: small tags and cut ends
notes: as for B1
B5: F67S: point mutant of the Homer EVH1 domain (protein)
chain: B1 chain with R7F, F67S
modifications: left off: small tags and cut ends
notes: as for B1
B6: R42E: point mutant of the Homer EVH1 domain (protein)
chain: B1 chain with R7F, R42E
modifications: left off: small tags and cut ends
notes: as for B1
B7: R46A: point mutant of the Homer EVH1 domain (protein)
chain: B1 chain with R7F, R46A
modifications: left off: small tags and cut ends
notes: as for B1
B8: S28A: point mutant of the Homer EVH1 domain (protein)
chain: B1 chain with R7F, S28A
modifications: left off: small tags and cut ends
notes: as for B1
B9: N23A: point mutant of the Homer EVH1 domain (protein)
chain: B1 chain with R7F, N23A
modifications: left off: small tags and cut ends
notes: as for B1
B10: V34M: point mutant of the Homer EVH1 domain (protein)
chain: B1 chain with R7F, V34M
modifications: left off: small tags and cut ends
notes: as for B1
B11: F74A: point mutant of the Homer EVH1 domain (protein)
chain: B1 chain with R7F, F74A
modifications: left off: small tags and cut ends
notes: as for B1
B12: H95A: point mutant of the Homer EVH1 domain (protein)
chain: B1 chain with R7F, H95A
modifications: left off: small tags and cut ends
notes: as for B1
B13: D39A: point mutant of the Homer EVH1 domain (protein)
chain: B1 chain with R7F, D39A
modifications: left off: small tags and cut ends
notes: as for B1
B14: S8L: point mutant of the Homer EVH1 domain (protein)
chain: B1 chain with R7F, S8L
modifications: left off: small tags and cut ends
notes: as for B1
B15: L96S: point mutant of the Homer EVH1 domain (protein)
chain: B1 chain with R7F, L96S
modifications: left off: small tags and cut ends
notes: as for B1
B16: K69A: point mutant of the Homer EVH1 domain (protein)
chain: B1 chain with R7F, K69A
modifications: left off: small tags and cut ends
notes: as for B1
B17: E93K: point mutant of the Homer EVH1 domain (protein)
chain: B1 chain with R7F, E93K
modifications: left off: small tags and cut ends
notes: as for B1
B18: Q72A: point mutant of the Homer EVH1 domain (protein)
chain: B1 chain with R7F, Q72A
modifications: left off: small tags and cut ends
notes: as for B1
B19: R46C: point mutant of the Homer EVH1 domain (protein)
chain: B1 chain with R7F, R46C
modifications: left off: small tags and cut ends
notes: as for B1
B20: N58A: point mutant of the Homer EVH1 domain (protein)
chain: B1 chain with R7F, N58A
modifications: left off: small tags and cut ends
notes: as for B1
B21: R42A: point mutant of the Homer EVH1 domain (protein)
chain: B1 chain with R7F, R42A
modifications: left off: small tags and cut ends
notes: as for B1
B22: N64G: point mutant of the Homer EVH1 domain (protein)
chain: B1 chain with R7F, N64G
modifications: left off: small tags and cut ends
notes: as for B1
B23: F74L: point mutant of the Homer EVH1 domain (protein)
chain: B1 chain with R7F, F74L
modifications: left off: small tags and cut ends
notes: as for B1

tested on: GST-mGluR5 or GST-Shank3 (residues 1143-1408); assay: GST pull-down binding of Homer EVH1 point mutants; set-up: key: wild-type (+); (−) indicates substantially reduced binding relative to wild-type (+); conditions: GST pull-down of myc-tagged mutants from HEK293 lysates, relative to wild-type

| Binding | Molecule |
| --- | --- |
| + | B1 |
| + | B2 |
| + | B3 |
| + | B4 |
| − | B5 |
| − | B6 |
| − | B7 |
| − | B8 |
| + | B9 |
| + | B10 |
| + | B11 |
| + | B12 |
| − | B13 |
| − | B14 |
| + | B15 |
| + | B16 |
| + | B17 |
| + | B18 |
| + | B19 |
| + | B20 |
| + | B21 |
| + | B22 |
| + | B23 |
